Measurements reported in PMC4742278, “BS69/ZMYND11 C-Terminal Domains Bind and Inhibit EBNA2” (PLoS Pathogens, 2016).

Columns and labels:
[1] = target: BS69_(MYND) Y532A (mouse); assay: ITC; peptide (~1 mM) titrated into BS69_(MYND) or BS69_(CC-MYND) (~0.1 mM) at 5°C; 20 mM Tris-HCl pH 7.5, 100 mM NaCl, 2 mM DTT; one-site fitting model
[2] = target: BS69 MYND domain (BS69_(MYND), residues 516–562) (mouse); assay: as above
[3] = target: BS69/ZMYND11 coiled-coil-MYND tandem domains (BS69_(CC-MYND), residues 440–562) (mouse); assay: as above
[4] = target: BS69_(MYND) R560A (mouse); assay: as above
[5] = target: flag-tagged BS69_(CC-MYND) Q546A/W550A (mouse); assay: co-IP
[6] = target: flag-tagged BS69_(CC-MYND) Q546A (mouse); assay: co-IP
[7] = target: EBNA2 PXLXP2 mutant (Epstein-Barr virus, strain W91) (UniProt P12978)
[8] = target: Epstein-Barr virus nuclear antigen 2 (EBNA2), expressed from a plasmid (Epstein-Barr virus, strain W91) (UniProt P12978)
[9] = target: EBNA2 fragment residues 381–445 (EBNA2_(381–445)) (Epstein-Barr virus, strain B95-8) (UniProt P12978); assay: ITC

**Q.** “EBNA2_(381–389) peptide with an additional Gly-Tyr dipeptide at the C-terminus (NH2-[…]-CONH2)” was tested. Which fold decrease of binding against wild-type BS69 (MYND) [1] did it give?
**A.** 3 fold

**Q.** And the Kd [2]?
**A.** 25.6 µM

**Q.** And the Kd [3]?
**A.** 7.4 µM

**Q.** And the fold decrease of binding against wild-type BS69 (MYND) [4]?
**A.** 10 fold

**Q.** “Epstein-Barr virus nuclear antigen 2 (EBNA2), expressed from a plasmid (from UniProt P12978 1-487) (natural protein)” was tested. Which percent reduction of EBNA2 binding against wild type [5] did it give?
**A.** 85%

**Q.** And the percent reduction of EBNA2 binding against wild type [6]?
**A.** 50%

**Q.** “flag-tagged wild-type BS69_(CC-MYND) (domain or fragment)” was tested. Which BS69 inhibition of the LMP1-Luc reporter activated by the EBNA2 PXLXP2 mutant [7] did it give?
**A.** 50%

**Q.** And the EBNA2 activation of the LMP1-Luc or Cp-Luc reporter in BJAB cells in the presence of wild-type BS69 (CC-MYND) (around 10-fold without BS69) [8]?
**A.** < 2 fold

**Q.** “BS69/ZMYND11 coiled-coil-MYND tandem domains (BS69_(CC-MYND), residues 440–562) (domain or fragment)” was tested. Which Kd [9] did it give?
**A.** 0.24 µM
